The record followed here is patent US10591466B2, “In vitro blood-brain barrier model” (priority 2014, dated 2020).

“And” between values parts separate entries of the source, which are not always exact repeats. Equal values may be shown once. “Also recorded” adds a separate entry of the source. Read-outs that look alike come from different tables or passages of the source. A value given as a limit tells only on which side of the number the result lay.

The nature of series [1]: Isoelectric point (pI) of VHH / VHH-comprising polypeptide. Type of series: physicochemical.
Series [2] concerns human brain extract (Sg tau 4697). Description: Western blotting of VHH on human brain extract. The series is classed as binding. Conditions: VHH 1 μg/ml. The procedure: (§1) The specificity of the VHH of the invention (A12) as compared to a control VHH recognizing brain proteins (H8/E9, identical to VHH E9, Perruchini et al.) was determined by western blotting on 3 different antigens: a human brain extract (Sg tau 4697), a mouse brain extract (Tg 4510) and on a purified protein, GFAP, a specific marker of astrocytes. […] Furthermore, VHH immunohistochemistry was performed from Tg4510 mouse tissues (Grueninger et al, 2010) harbouring NFTs. […] For western blotting, first we performed a polyacrylamide gel electrophoresis at 200 V for 45 min. Then we transferred proteins from gel to nitrocellulose membrane during 1H at 30 V. We saturated nitrocellulose membrane with PBS milk 2% for 1H under stirring. The membrane was then incubated for 1H with selected VHH diluted at 1 μg/ml in PBS milk 2%, and washed 3 times 5 min with PBS Tween. A secondary mouse mAb C23-21 recognizing Strep-tag (DI 2012-32 High-affinity monoclonal anti-Strep-Tag antibody C23.21; Girard-blanc C., Krey T., Vasiliauskaite ieva, Nato F., Lafaye P., Dartevelle S., Rey F.) was added at 1:2500 and incubated 1H at 37° C. Then after additional washes, an anti-mouse mAb labelled with peroxidase was added for 1 H. Three washes of 5 min in PBS Tween were performed.
(Immunoblotting shows a protein as a band on a membrane.)

In series [3] the test system is mouse brain extract (Tg 4510). The series can be described thus: Western blotting of VHH on mouse brain extract. Type of series: binding. The settings on record: VHH 1 μg/ml. Here is the method: as §1
Series [4] has as its target GFAP (glial fibrillary astrocytic protein) (Homo sapiens, UniProt P14136). Description: Western blotting of VHH on purified GFAP. The series is classed as binding. Conditions: VHH 1 μg/ml. The procedure: as §1
Series [5] concerns Tg 4510 mouse brain tissue. Description: Immunohistochemistry on Tg 4510 mouse brain sections. The series is classed as binding. The settings on record: Tg 4510 paraffin-embedded mouse brain sections. Here is the method: as §1

Chain of GFAP (glial fibrillary astrocytic protein) (P14136 whole entry, species assumed): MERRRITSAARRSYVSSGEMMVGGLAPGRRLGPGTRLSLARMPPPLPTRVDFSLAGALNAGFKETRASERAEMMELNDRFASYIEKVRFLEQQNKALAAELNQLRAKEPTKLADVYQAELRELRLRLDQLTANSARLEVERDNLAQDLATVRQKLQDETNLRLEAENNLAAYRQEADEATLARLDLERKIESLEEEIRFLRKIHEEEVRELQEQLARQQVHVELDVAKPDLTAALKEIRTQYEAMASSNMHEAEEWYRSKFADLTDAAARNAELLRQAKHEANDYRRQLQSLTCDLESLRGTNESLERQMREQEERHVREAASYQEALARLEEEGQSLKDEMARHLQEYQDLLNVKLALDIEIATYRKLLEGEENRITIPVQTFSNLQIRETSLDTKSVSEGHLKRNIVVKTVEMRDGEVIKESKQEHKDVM

“RRVNRSEPTQHNLRGTGREVSVTPQSGKIISSWEVHGQQTRL [Neurovita 3]”: in series [1], the “isoelectric point (pI)” value is on record as “basic”.

B1: VHH A12: alpaca VHH with the sequence of SEQ ID NO:3, selected from an immune library; does not recognize any human brain protein (protein)
VHH: EVQLQASGGGLAQPGGSLRLSVTVSGSIDVINNMAWYRQAPGNARELVATITSGFSTNYASSVKGRFTISRDNAKKAVYLQMNSLKPEDTADYYSKVHLIRLGAARAYDYWGQGTQVTVS
As for B1, the “isoelectric point (pI)” value in series [1] is 9.78 and > 8.5 and 9.86; in series [1] (listed as SEQ ID NO:3) it was > 9. Moreover, the “reactivity by western blotting against human brain extract” value in series [2] is “does not recognize any human brain protein; also recorded: no reactivity; also recorded: not to recognize any brain protein”; in series [2] (listed as VHH A2), “no bands were detected”. In addition, the “reactivity by western blotting against mouse brain extract” value is on record as “no reactivity; also recorded: not to recognize any brain protein” in series [3] and “no bands were detected” in series [3] (listed as VHH A2). The “reactivity by western blotting against GFAP” value in series [4] is recorded as “no reactivity; also recorded: not to recognize any brain protein”; in series [4] (listed as VHH A2) it was “no bands were detected”. Also, the “immunoreactivity / labelling by immunohistochemistry” value in series [5] is given as “no immunoreactivity; also recorded: no labelling was observed; also recorded: not to recognize any brain protein”.
